± gives the standard error. Variants at the floor of the assay were thinned out.
B1: glmS ribozyme (parent)
chain: AUAAAAGCGCCAGAACUACAGAAAUGUAGUUGACGAGGAGGAGGUUUAUCGAAUUUUCGGCGGAUGCCUCCAAA

Variants of: B1
Test: self-cleavage kobs at 2500 uM GlcN6P; higher = faster cleavage; RNA array
Conditions: with glucosamine-6-phosphate
Method in brief: (§1)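 E. coli RNA polymerase transcribed barcoded ribozyme variants in situ on sequenced MiSeq chips, which were tracked via a hybridised Cy3 probe at 37 °C. Tiles were imaged over ~14 h after glucosamine-6-phosphate (40 μM to 10 mM) in HEPES/KCl/Mg(OAc)2 buffer was flowed in. Normalised per-tile medians were fit to one- or two-exponential decays for kobs, and kcat and KM came from weighted Michaelis–Menten fits.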

Row | Variant | self-cleavage kobs at 2500 uM GlcN6P [s⁻¹]
1 | AUAAAAGCGCCAGGACUACAGAAAUGUAGUUGACGAGGAGAAGGUUUAUCGAAUUUUCGGCUGAUGCCUCCAAA | < 1e-05
2 | AUAAAAGCGCCAGUACUACAGAAAUGUAGUUGAAGAGGAGGAGGUUUGUCGAAUUUUCGGCGGAUGCGUCAAAA | < 1e-05
3 | AUAAAAGCGCCAGGUCUACAGAAAUGUAGUUGACGAGGAGGAGGUUUUUCGAAUUUUCGGCGGAUGCCUCCAAA | 0.000128 ± 4.1e-05
4 | AUAAAAGCGCCAGACCUACAGAAAUGUAGUUGCCGAGGAGGAGGUUUAUCGAAUUUUCGGUGGAUACCUCCAAA | < 1e-05
5 | AUAAAAGCGCCAGGACUACAGAAAUGUAGUUGACUAGGAGGAGGUUUAUCGAAUUUUCGGCGGAUGUCUCCAAA | < 1e-05
6 | AUAAAAGCGCCAGCACUACAGAAAUGUAGUUAACGAGGAGGAGGUUUAUCGAAUUUUCGGCGGAUGGCUCCAAA | 6.42e-05 ± 1.9e-05
7 | AUAAAAGCGCCAGGACUACAGAAAUGUAGUUGACGAGGAGAAGGUUUAUCGAAUUUUCGUCGGAUGCCUCCAAA | < 1e-05
8 | AUAAAAGCGCCAGUACUACAGAAAUGUAGUUGACGAGGAGGAGGGUAAUCGAACUUUCGGCUGAUGCCUCCAAA | < 1e-05
9 | AUAAAAGCGCCAGACCUACAGACAUGUAGUUGACGAGGAGGAGGUUUAUCGAAUUUUCGGCGGAUGCCUCCAAA | 0.00398 ± 0.0014
10 | AUAAAAGCGCCAGACCUACAGAAAUGUAGUUGACGAGGUGGAGGUUUAUGGAGUUUUCGGCGGAUGCCUCCAAA | < 1e-05
11 | AUAAAAGCGCCAGGACUACAGAAAUGUAGUUGACGAGGAGGGGAUUUAUCGAAUGUUCGGCGGAUGCCUCCAAA | 0.000136 ± 4.1e-05
12 | AUAAAAGCGCCAGGACUACAGAAAUGUAGUUGACGAGGAGGAGGUUUAUCGAAUUUUCGUCGGAUACCUCCAAA | < 1e-05
13 | AUAAAAGCGCCAGGUCUACAGAAAUGUAGUUGACGAGGAGGAGGUCUAUCGAAUUUUCGGCGGAUGCCUCCAAA | 0.00169 ± 0.00048
14 | AUAAAAGCGCCAGUACUACAGAAAUGUAGUUCACGAGGAGGAGGUUAAUCGAAUUUUCGGCGGAUGCCUCCAAA | 8.18e-05 ± 1.8e-05
15 | AUAAAAGCGCCAGCACUACAGAAAUGUAGUUGACGAGGAUGAGGUUUAUCGAGUUUUCGGCGGAUGCCUCCAAA | 0.000325 ± 5.5e-05
16 | AUAAAAGCGCCAGUACUACAGAAAUGUAGUUGACGAGGAGGAGGUUUCUCGAAUUUUCGGCGGAUGCCACCAAA | < 1e-05
17 | AUAAAAGCGCCAGUACUACAGAAAUGUAGUUGUCGAGGAGGAGGUUUAUCGACUUUUCGGCGUAUGCCUCCAAA | < 1e-05

Row | Variant | self-cleavage kobs at 2500 uM GlcN6P [s⁻¹]
18 | AUAAAAGCGCCAGCACUACAGAAAUGUAGUUGACGAGGAGGAGGAUUAUCGAAUUUUCGGCGGUUGCCUCCAAA | 4.3e-05 ± 1.9e-05
19 | AUAAAAGCGCCAGGAGUACAGAAAUGUAGGUGACGAGGAGGAGGUUUACCGAAAUUUCGGCGGAUGGUUCCAAA | < 1e-05
20 | AUAAAAGCGCCAGCACUACAGAAAUGUAGCUAACGAGGAGGAGGUUUAUCGAAUUUUGGGCGGAUGCCUCCAAA | 7.82e-05 ± 3.2e-05
21 | AUAAAAGCGCCAGGACUACAGAAAUGUAGUUGACGAGGAGGACGUUUAUCGAAUUUCCGGCGGAUGCCUCCAAA | < 1e-05
22 | AUAAAAGCGCCAGUACUACAGAAAUGUAGUUGACGAGGAGGAGGUUUAUCGAACUUUCGGCGGAGGCCUCCAAA | 0.000411 ± 0.00014
23 | AUAAAAGCGCCAGCACUACAGAAAUGUAGUUGAGGAGGAGGAGGUUUAUCGAAUUUUCGGCUGAUGCCUCCAAA | < 1e-05
24 | AUAAAAGCGCCAGACCUACAGAAAUGUAGUUGACGAGGAGGGGGUUUAUCGAAUUUUCGGCGGAUGUCUCCAAA | 0.000389 ± 9.9e-05
25 | AUAAAAGCGCCAGUACUACAGAAAUGUAGUUUACGAGGAGGAGCUUUAUCGAAUUUUCGGCUGAUGCCUCAAAA | < 1e-05
26 | AUAAAAGCGCCAGCAUUACAGAAAUGUAGUUGACGAGGAGGACGUUUAUCGAAUUUUCGGCGGAUGCCUCCAAA | < 1e-05
27 | AUAAAAGCGCCAGGACUACAGAAAUGUAGUUGACGAGGAGGAGGGUUAUCGAAUUUUCGGCGGAUGCCUCUAAA | 0.0021 ± 0.0006
28 | AUAAAAGCGCCAGUACUACAGAAAUGUAGUUGACGAGGAGGAGGUAUAUCGUAUUUUAGGCGGAUGCCUCCAAA | < 1e-05
29 | AUAAAAGCGCCAGUACUACAGAAAUGUAGUUCACGAGGAGGAGGUUUAUCGUAUUUUCGGCGGAUGCCUCCAAA | < 1e-05
30 | AUAAAAGCGCCAGGACUACAGAAAUGUAGUUGACGAGGAGGAGGUUUAUCGAAUUGUCGGCGGAUGCCUCUAAA | 0.0458 ± 0.019
31 | AUAAAAGCGCCAGUACUACAGAAAUGUAUUUGACGAGGAGGAGGUUUAUGGAAUUUUCGGCGGAUGCUUCCAAA | 0.000156 ± 3.8e-05
32 | AUAAAAGCGCCAGGACUACAGAAAUGUAGUUGACGUGGCGGAGGUUUAUCGAAUUUUCGGCGGAUGCCUCCAAA | < 1e-05
33 | AUAAAAGCGCCAGUAUUACAGAAAUGUAGUUGACGAGGAGGAGGUUGAUCGAAUUUUUGACGGAUGCCGCCAAA | 0.000102 ± 2.6e-05

Variants of: B1
Test: self-cleavage kobs at 10000 uM GlcN6P; higher = faster cleavage; RNA array
Conditions: with glucosamine-6-phosphate
Method in brief: as §1

Row | Variant | self-cleavage kobs at 10000 uM GlcN6P [s⁻¹]
34 | AUAAAAGCGCCAGUACUACAGAAAUGUAGUUGAAGAGGAGGAGGUUUGUCGAAUUUUCGGCGGAUGCGUCAAAA | 0.000226 ± 7.7e-05
35 | AUAAAAGCGCCAGACCUACAGACAUGUAGUUGACGAGGAGGAGGUUUAUCGAAUUUUCGGCGGAUGCCUCCAAA | 0.00556 ± 0.0014
36 | AUAAAAGCGCCAGCACUACAGAAAUGUAGUUGACGAGGAUGAGGUUUAUCGAGUUUUCGGCGGAUGCCUCCAAA | 0.000591 ± 0.0001
37 | AUAAAAGCGCCAGGAGUACAGAAAUGUAGGUGACGAGGAGGAGGUUUACCGAAAUUUCGGCGGAUGGUUCCAAA | < 1e-05
